One assay addresses GLP receptor. Nature of the assay: cell-based or functional assay.
Assay [1] concerns the target T1, human IL-13 (human, UniProt P35225 35-146, limits assumed, biotinylated in the binding ELISA and on the Biacore chip). Nature of the assay: cell-based or functional assay.
Assay [2] deals with T2, cynomolgous IL-13 (cynomolgous, UniProt Q0PW92 19-132, Presumably biotinylated for capture on the streptavidin (SA) chip; biotinylation sites not stated.). As to the kind of experiment: cell-based or functional assay.
Assay [3] concerns the target T1, human IL-13. Nature of the assay: cell-based or functional assay. This is another data set of the same source.
In assay [4] the target is T2, cynomolgous IL-13. Nature of the assay: cell-based or functional assay. The source holds these as a separate data set.
Assay [5] has as its target T1, human IL-13. Nature of the assay: sandwich ELISA on hIL-13; material in 1xPBS, not nebulised. On the technique in general: ELISA stands for enzyme-linked immunosorbent assay.
For assay [6], the target named is T2, cynomolgous IL-13. Nature of the assay: Biacore, about 100 RU cynomolgous IL-13 on SA chip, dAb in flow. (In general: In SPR one partner is held on a chip, and binding of the other changes the refractive index at the surface.)
Assay [7] addresses T1, human IL-13. Nature of the assay: sandwich ELISA on hIL-13; 2.6 mg/mL in PBS, LC+, aerosolized material.
Assay [8] deals with T1, human IL-13. Nature of the assay: Biacore, about 100 RU biotinylated human IL-13 on SA chip, dAb in flow.
Assay [9] has as its target T1, human IL-13. Nature of the assay: sandwich ELISA on hIL-13; 2.6 mg/mL in PBS, E-flow, aerosolized material.
For assay [10], the target named is T1, human IL-13. As to the kind of experiment: sandwich ELISA on hIL-13; 2.6 mg/mL in PBS, LC+, material remaining in cup.
Assay [11] deals with T1, human IL-13. Nature of the assay: sandwich ELISA on hIL-13; 2.6 mg/mL in PBS, E-flow, material remaining in cup.
In assay [12] the target is T1, human IL-13. As to the kind of experiment: sandwich ELISA on hIL-13; 2.3 mg/mL in phosphate/PEG1000/sucrose, LC+, aerosolized material.
In assay [13] the target is T1, human IL-13. Nature of the assay: sandwich ELISA on hIL-13; 4.7 mg/mL in phosphate/PEG1000/sucrose, LC+, aerosolized material.
Assay [14] addresses T1, human IL-13. As to the kind of experiment: sandwich ELISA on hIL-13; 2.3 mg/mL in phosphate/PEG1000/sucrose, E-flow, aerosolized material.
The target of assay [15] is T1, human IL-13. Nature of the assay: sandwich ELISA on hIL-13; 4.7 mg/mL in phosphate/PEG1000/sucrose, E-flow, aerosolized material.
The target of assay [16] is T1, human IL-13. As to the kind of experiment: sandwich ELISA on hIL-13; 2.3 mg/mL in phosphate/PEG1000/sucrose, LC+, material remaining in cup.
The target in assay [17] is T1, human IL-13. Nature of the assay: sandwich ELISA on hIL-13; 4.7 mg/mL in phosphate/PEG1000/sucrose, LC+, material remaining in cup.
For assay [18], the target named is T1, human IL-13. As to the kind of experiment: sandwich ELISA on hIL-13; 4.7 mg/mL in phosphate/PEG1000/sucrose, E-flow, material remaining in cup.
Assay [19] has as its target T1, human IL-13. As to the kind of experiment: sandwich ELISA: dAb mixed with hIL-13, capture and detection by mouse anti-human IL-13 antibodies, OD450.
Assay [20] concerns the target T1, human IL-13. As to the kind of experiment: binding ELISA: biotinylated human IL-13 on NeutrAvidin plate, bound dAb detected with anti-human Ig (VH specific).
Assay [21] has as its target T1, human IL-13. Nature of the assay: 'Binding Assay' on hIL-13 as headed in Table 12; PARI LC*, aerosol sample at 3 mins.
In assay [22] the target is T1, human IL-13. As to the kind of experiment: 'Binding Assay' on hIL-13 as headed in Table 12; PARI LC*, aerosol sample at 15 mins.
The target in assay [23] is T1, human IL-13. Nature of the assay: 'Binding Assay' on hIL-13 as headed in Table 12; PARI LC*, aerosol sample at 29 mins.
For assay [24], the target named is T1, human IL-13. As to the kind of experiment: 'Binding Assay' on hIL-13 as headed in Table 12; 20 mg/ml in PBS, before nebulisation.
Assay [25] addresses T1, human IL-13. Nature of the assay: 'Binding Assay' on hIL-13 as headed in Table 12; PARI LC*, reservoir sample at 3 mins.
For assay [26], the target named is T1, human IL-13. As to the kind of experiment: 'Binding Assay' on hIL-13 as headed in Table 12; PARI LC*, reservoir sample at 15 mins.
Assay [27] concerns the target T1, human IL-13. As to the kind of experiment: 'Binding Assay' on hIL-13 as headed in Table 12; PARI LC*, reservoir sample at 29 mins.

The values that follow come from patent US20100260853A1 (published 2010).

What is called IC50 is the concentration that inhibits the measured activity by half. High values mean lower potency, low ones higher potency. By Kd is commonly meant a measure of binding affinity in units of concentration. The EC50 is the concentration at which the effect is half-maximal. Low readings indicate higher potency in that assay, high ones lower potency in that assay.

Where “and” joins values, the source holds several entries; their conditions need not be identical. Equal entries are not always repeated.

T2 sequence (Q0PW92 entry or part of it limits assumed, form in doubt): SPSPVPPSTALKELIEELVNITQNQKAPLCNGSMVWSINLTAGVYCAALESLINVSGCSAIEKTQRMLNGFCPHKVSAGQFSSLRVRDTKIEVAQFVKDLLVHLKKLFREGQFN

In the assay with GLP receptor, “Exendin 4 (G4S)3 DOM7h-14 fusion (DAT0115) (from UniProt P26349)” had a DAT01 cell assay EC50, CHO 6CRE/luciferase reporter (sample: DAT0115 LC+ aerosol 3 mins) of 0.296 nM; a DAT01 cell assay EC50, CHO 6CRE/luciferase reporter (sample: DAT0115 LC+ aerosol 15 mins) of 0.316 nM; a DAT01 cell assay EC50, CHO 6CRE/luciferase reporter (sample: DAT0115 LC+ aerosol 29 mins) of 0.142 nM; a DAT01 cell assay EC50, CHO 6CRE/luciferase reporter (sample: DAT0115 LC+ cup 3 mins) of 0.725 nM. Moreover, in the assay with GLP receptor, the DAT01 cell assay EC50, CHO 6CRE/luciferase reporter (sample: DAT0115 LC+ cup 15 mins) turned out to be 0.453 nM; the DAT01 cell assay EC50, CHO 6CRE/luciferase reporter (sample: DAT0115 LC+ cup 29 mins) was 0.445 nM; the DAT01 cell assay EC50, CHO 6CRE/luciferase reporter (sample: DAT0115 T0) was 0.178 nM; the DAT01 cell assay EC50, CHO 6CRE/luciferase reporter (sample: DAT0115 e-Flow aerosol 3 mins) worked out at 0.798 nM. This molecule returned a DAT01 cell assay EC50, CHO 6CRE/luciferase reporter (sample: DAT0115 e-Flow cup 3 mins) with GLP receptor of 0.535 nM.

B1: DOM10-53-474 (other)
chain: GVQLLESGGGLVQPGGSLRLSCAASGFTFAWYDMGWVRQAPGKGLEWVSSIDWHGEVTYYADSVKGRFTISRDNSKNTLYLQMNSLRAEDTAVYYCATAEDEPGYDYWGQGTLVTVSS
B1: in the assay with human IL-13 [1], the “HEK assay hIL-13 EC50 (HEK293 STAT6 SEAP reporter, 6 ng/ml IL-13)” value was 0.63 nM. In the assay with cynomolgous IL-13 [2], the “HEK assay cIL-13 EC50 (HEK293 STAT6 SEAP reporter)” value stood at 11.1 nM. In the assay with human IL-13 [3], the “HEK cell assay EC50, Hu IL-13 (sample: DOM10-53-474 standard)” value was determined as 0.62 nM. Besides, the “HEK cell assay EC50, Cyno IL-13 (sample: DOM10-53-474 standard)” value in the assay with cynomolgous IL-13 [4] stood at 15.2 nM. Moreover, the IC50 in the assay with human IL-13 [5] is 0.0458 nM and 0.0356 nM and 0.0289 nM and 0.0269 nM; with human IL-13 [7], 0.023 nM; in the assay with human IL-13 [9], 0.0351 nM; with human IL-13 [10] it was 0.0339 nM; with human IL-13 [11], 0.0224 nM; with human IL-13 [12] it was 0.0348 nM. In addition, the IC50 with human IL-13 [13] was determined as 0.0149 nM; in the assay with human IL-13 [14] it was 0.0322 nM; with human IL-13 [15], 0.0185 nM; with human IL-13 [16] it was 0.0317 nM; in the assay with human IL-13 [17], 0.0129 nM; with human IL-13 [18], 0.0214 nM. Also, the Kd with cynomolgous IL-13 [6] was found to be 2 nM; with human IL-13 [8] it was 0.028 nM. Also, the 50% effective concentration (EC50) stood at 0.057 nM with human IL-13 [19] and 1.08 nM with human IL-13 [20].

B2: DOM10-275-78 (other)
chain: EVQLLESGGGLVQPGGSLRLSCVASGFTFDVAEMDWVRQAPGKGLEWVSTISPSRRGTYYADSVKGRFTISRDNSKNTLYLQMNSLRAEDTAVYYCAKAYTGRSLWGPGTLVTVSS
As for B2, the “HEK assay hIL-13 EC50 (HEK293 STAT6 SEAP reporter, 6 ng/ml IL-13)” value with human IL-13 [1] stood at 2.5 nM. Besides, the “HEK assay cIL-13 EC50 (HEK293 STAT6 SEAP reporter)” value in the assay with cynomolgous IL-13 [2] worked out at 1.4 nM. In addition, in the assay with human IL-13 [3], the “HEK cell assay EC50, Hu IL-13 (sample: DOM10-275-78 aerosol 3 mins)” value is 1.8 nM; the “HEK cell assay EC50, Hu IL-13 (sample: DOM10-275-78 aerosol 15 mins)” value turned out to be 1.01 nM; the “HEK cell assay EC50, Hu IL-13 (sample: DOM10-275-78 aerosol 29 mins)” value is 0.62 nM; the “HEK cell assay EC50, Hu IL-13 (sample: DOM10-275-78 cup 3 mins)” value stood at 1.45 nM. In the assay with human IL-13 [3], the “HEK cell assay EC50, Hu IL-13 (sample: DOM10-275-78 cup 15 mins)” value was found to be 2.18 nM; the “HEK cell assay EC50, Hu IL-13 (sample: DOM10-275-78 cup 29 mins)” value stood at 0.48 nM; the “HEK cell assay EC50, Hu IL-13 (sample: DOM10-275-78 start)” value was 0.58 nM. Also, in the assay with cynomolgous IL-13 [4], the “HEK cell assay EC50, Cyno IL-13 (sample: DOM10-275-78 aerosol 3 mins)” value came out at 0.99 nM; the “HEK cell assay EC50, Cyno IL-13 (sample: DOM10-275-78 aerosol 15 mins)” value came out at 0.95 nM; the “HEK cell assay EC50, Cyno IL-13 (sample: DOM10-275-78 aerosol 29 mins)” value stood at 0.74 nM; the “HEK cell assay EC50, Cyno IL-13 (sample: DOM10-275-78 cup 3 mins)” value was found to be 1.77 nM. In addition, in the assay with cynomolgous IL-13 [4], the “HEK cell assay EC50, Cyno IL-13 (sample: DOM10-275-78 cup 15 mins)” value is 1.52 nM; the “HEK cell assay EC50, Cyno IL-13 (sample: DOM10-275-78 cup 29 mins)” value was 0.74 nM; the “HEK cell assay EC50, Cyno IL-13 (sample: DOM10-275-78 start)” value was 0.93 nM. This molecule also yielded a Kd with cynomolgous IL-13 [6] of 0.32 to 0.75 nM. For the same molecule, in the assay with human IL-13 [8], the Kd lay within 0.072 to 0.1 nM. The molecule also gave an IC50 with human IL-13 [21] of 1.1 nM. In the assay with human IL-13 [22], this molecule had an IC50 of 1 nM. In the assay with human IL-13 [23], this molecule registered an IC50 of 1.1 nM. In the assay with human IL-13 [24], this molecule displayed an IC50 of 1.2 nM. Besides, the IC50 with human IL-13 [25] was found to be 1.1 nM. Moreover, in the assay with human IL-13 [26], the IC50 amounted to 1.2 nM. In the assay with human IL-13 [27], this molecule yielded an IC50 of 1.1 nM. The EC50 with human IL-13 [19] amounted to 3.33 nM. In the assay with human IL-13 [20], this molecule came in with an EC50 of 1.3 nM.
